Results taken from the supplement of paper PMC11246515.
± gives the standard deviation of the averaged measurements.

Assay: total protein half-life in vivo (active degradation + dilution); higher = more stable protein
[1] = E. coli NCM3722 delta-clpP delta-lon delta-hslV, growth: N-lim chemostat, doubling time 6 h
[2] = E. coli NCM3722 delta-clpP, growth: N-lim chemostat, doubling time 6 h
[3] = E. coli NCM3722 delta-hslV, growth: N-lim chemostat, doubling time 6 h
[4] = E. coli NCM3722 delta-lon, growth: N-lim chemostat, doubling time 6 h
[5] = E. coli NCM3722 delta-smpB, growth: N-lim chemostat, doubling time 6 h
[6] = wild type E. coli NCM3722, growth: C-lim chemostat, doubling time 3 h
[7] = wild type E. coli NCM3722, growth: C-lim chemostat, doubling time 6 h
[8] = wild type E. coli NCM3722, growth: C-lim chemostat, doubling time 12 h
[9] = wild type E. coli NCM3722, growth: N-lim chemostat, doubling time 6 h
[10] = wild type E. coli NCM3722, growth: N-lim chemostat, doubling time 12 h
[11] = wild type E. coli NCM3722, growth: P-lim chemostat, doubling time 6 h
[12] = wild type E. coli NCM3722, growth: P-lim chemostat, doubling time 12 h

Row | Sequence | total protein half-life in vivo [1] [h] | total protein half-life in vivo [2] [h] | total protein half-life in vivo [3] [h] | total protein half-life in vivo [4] [h] | total protein half-life in vivo [5] [h] | total protein half-life in vivo [6] [h] | total protein half-life in vivo [7] [h] | total protein half-life in vivo [8] [h] | total protein half-life in vivo [9] [h] | total protein half-life in vivo [10] [h] | total protein half-life in vivo [11] [h] | total protein half-life in vivo [12] [h]
1 | MSEQETRGANEAIDFNDELRNRREKLAALRQQGVAFPNDFRRDHTSDQLHEEFDAKDNQELESLNIEVSVAGRMMTRRIMGKASFVTLQDVGGRIQLYVARDSLPEGVYNDQFKKWDLGDIIGARGTLFKTQTGELSIHCTELRLLTKALRPLPDKFHGLQDQEVRYRQRYLDLIANDKSRQTFVVRSKILAAIRQFMVARGFMEVETPMMQVIPGGASARPFITHHNALDLDMYLRIAPELYLKRLVVGGFERVFEINRNFRNEGISVRHNPEFTMMELYMAYADYHDLIELTESLFRTLAQEVLGTTKVTYGEHVFDFGKPFEKLTMREAIKKYRPETDMADLDNFDAAKALAESIGITVEKSWGLGRIVTEIFDEVAEAHLIQPTFITEYPAEVSPLARRNDVNPEITDRFEFFIGGREIGNGFSELNDAEDQAERFQEQVNAKAAGDDEAMFYDEDYVTALEYGLPPTAGLGIGIDRMIMLFTNSHTIRDVILFPAMRPQK [P0A8N5] | 5.8 ± 0.78 | 5.16 ± 0.085 | 4.88 ± 0.071 | 5.06 ± 0.16 | 4.87 ± 0.087 | 3.05 ± 0.11 | 5.71 ± 0.27 | 9.948 ± 0.028 | 4.74 ± 0.36 | 7.77 ± 0.82 | 5.55 ± 0.27 | 11.2 ± 0.22
2 | MSEQHAQGADAVVDLNNELKTRREKLANLREQGIAFPNDFRRDHTSDQLHAEFDGKENEELEALNIEVAVAGRMMTRRIMGKASFVTLQDVGGRIQLYVARDDLPEGVYNEQFKKWDLGDILGAKGKLFKTKTGELSIHCTELRLLTKALRPLPDKFHGLQDQEARYRQRYLDLISNDESRNTFKVRSQILSGIRQFMVNRGFMEVETPMMQVIPGGAAARPFITHHNALDLDMYLRIAPELYLKRLVVGGFERVFEINRNFRNEGISVRHNPEFTMMELYMAYADYKDLIELTESLFRTLAQDILGKTEVTYGDVTLDFGKPFEKLTMREAIKKYRPETDMADLDNFDSAKAIAESIGIHVEKSWGLGRIVTEIFEEVAEAHLIQPTFITEYPAEVSPLARRNDVNPEITDRFEFFIGGREIGNGFSELNDAEDQAQRFLDQVAAKDAGDDEAMFYDEDYVTALEHGLPPTAGLGIGIDRMVMLFTNSHTIRDVILFPAMRPVK [P0A8N3] | 5.76 ± 0.38 | 5.45 ± 0.16 | 5.23 ± 0.14 | 5.58 ± 0.26 | 5.19 ± 0.12 | 3.07 ± 0.11 | 5.894 ± 0.022 | 10.3 ± 0.74 | 4.98 ± 0.45 | 8.8 ± 0.29 | 5.67 ± 0.29 | 10.6 ± 0.79
3 | MSEQNNTEMTFQIQRIYTKDISFEAPNAPHVFQKDWQPEVKLDLDTASSQLADDVYEVVLRVTVTASLGEETAFLCEVQQGGIFSIAGIEGTQMAHCLGAYCPNILFPYARECITSMVSRGTFPQLNLAPVNFDALFMNYLQQQAGEGTEEHQDA [P0AG86] | 5.809 ± 0.028 | 5.336 ± 0.019 |  | 6.08 ± 0.59 | 5.16 ± 0.59 | 2.91 ± 0.79 | 7.35 ± 0.53 | 11.2 ± 1.2 | 5.17 ± 0.34 | 9.15 |  | 13.8 ± 2.5
4 | MSESLRIIFAGTPDFAARHLDALLSSGHNVVGVFTQPDRPAGRGKKLMPSPVKVLAEEKGLPVFQPVSLRPQENQQLVAELQADVMVVVAYGLILPKAVLEMPRLGCINVHGSLLPRWRGAAPIQRSLWAGDAETGVTIMQMDVGLDTGDMLYKLSCPITAEDTSGTLYDKLAELGPQGLITTLKQLADGTAKPEVQDETLVTYAEKLSKEEARIDWSLSAAQLERCIRAFNPWPMSWLEIEGQPVKVWKASVIDTATNAAPGTILEANKQGIQVATGDGILNLLSLQPAGKKAMSAQDLLNSRREWFVPGNRLV | 5.19 ± 0.35 | 4.68 ± 0.25 | 5.38 ± 1 | 6.55 ± 0.13 | 4.49 ± 0.29 | 3.118 ± 0.012 | 5.91 ± 0.49 | 8.28 ± 1.2 | 4.84 ± 0.38 | 7.62 ± 0.9 | 5.62 ± 0.28 | 10.1 ± 0.96
5 | MSETKNELEDLLEKAATEPAHRPAFFRTLLESTVWVPGTAAQGEAVVEDSALDLQHWEKEDGTSVIPFFTSLEALQQAVEDEQAFVVMPVRTLFEMTLGETLFLNAKLPTGKEFMPREISLLIGEEGNPLSSQEILEGGESLILSEVAEPPAQMIDSLTTLFKTIKPVKRAFICSIKENEEAQPNLLIGIEADGDIEEIIQATGSVATDTLPGDEPIDICQVKKGEKGISHFITEHIAPFYERRWGGFLRDFKQNRII [P0AFZ1] | 3.64 | 3.49 ± 0.42 | 2.73 | 3.96 ± 0.78 | 2.39 ± 0.091 | 2.44 | 4.53 ± 0.38 | 6.76 ± 0.27 | 2.81 | 4.38 | 3.65 | 7.61
6 | MSFATISVIGLGYIGLPTAAAFASRQKQVIGVDINQHAVDTINRGEIHIVEPDLASVVKTAVEGGFLRASTTPVEADAWLIAVPTPFKGDHEPDMTYVESAARSIAPVLKKGALVILESTSPVGSTEKMAEWLAEMRPDLTFPQQVGEQADVNIAYCPERVLPGQVMVELIKNDRVIGGMTPVCSARASELYKIFLEGECVVTNSRTAEMCKLTENSFRDVNIAFANELSLICADQGINVWELIRLANRHPRVNILQPGPGVGGHCIAVDPWFIVAQNPQQARLIRTAREVNDHKPFWVIDQVKAAVADCLAATDKRASELKIACFGLAFKPNIDDLRESPAMEIAELIAQWHSGETLVVEPNIHQLPKKLTGLCTLAQLDEALATADVLVMLVDHSQFKVINGDNVHQQYVVDAKGVWR | 5.3 ± 0.14 |  | 5.1 ± 0.76 | 4.6415 ± 0.0014 | 4.11 ± 0.081 | 2.91 ± 0.71 | 7.21 ± 1.1 | 9.93 ± 3 | 5 ± 0.43 | 8.104 ± 0.048 | 5.77 ± 0.07 | 12.5 ± 1.5
7 | MSFDPTGYTLAHEHLHIDLSGFKNNVDCRLDQYAFICQEMNDLMTRGVRNVIEMTNRYMGRNAQFMLDVMRETGINVVACTGYYQDAFFPEHVATRSVQELAQEMVDEIEQGIDGTELKAGIIAEIGTSEGKITPLEEKVFIAAALAHNQTGRPISTHTSFSTMGLEQLALLQAHGVDLSRVTVGHCDLKDNLDNILKMIDLGAYVQFDTIGKNSYYPDEKRIAMLHALRDRGLLNRVMLSMDITRRSHLKANGGYGYDYLLTTFIPQLRQSGFSQADVDVMLRENPSQFFQ | 4.42 |  |  | 6.12 | 3.08 ± 0.51 |  |  | 9.94 | 4.97 |  |  | 15.1
